Tests used:
[1] = SPR (Biocore T100) binding affinity to sLeA; details: Example 3, Table 7, mean
Protocol: (§1) An in vitro evaluation of the binding affinity to sLeA and sLeC of the humanized antibodies from Example 1 were performed using a Biocore T100 SPR biosensor using a CM7 sensor chip with PBS-p (0.005% Tween-20) running buffer at 25 degrees Celsius. The antibodies were couples to ˜30,000 RU at 50 ug/ml in 10 mM NaAcetate pH 5.0 over an NHS/EDC activated surface. A reference surface was activated and blocked to serve as a control. Carbohydrate samples (sLeA, sLeC and sialyl Lewis X (all from Dextra Labs)) were dissolved in PBS-p running buffer up to a stock concentration of 10 mM. Each was then prepared in a 2-fold dilution series up to 300 μM and each concentration series was tested over the antibody surfaces. Response data were processed by subtracting the responses from the reference surfaces as well as a buffer injection. Binding constants were determined at 25 degrees Celsius.
(§2) Seven of the humanized antibody clones from Example 1 were tested for binding affinity to sLeA, sLeC and […]. Methods used were similar to those described in Example 2 above, except with sLeX only at one concentration of 300 μM.

[2] = SPR (Biocore T100) binding affinity to sLeC; details: Example 3, Table 7, mean
Protocol: as §1, §2

Molecule	Kd [1] [µM]	Kd [2] [µM]
Clone 4770: Humanized IgG1 antibody, heavy chain variable region HvCh3 (SEQ ID NO: 3), light chain LiCh2 (SEQ ID NO: 6) (antibody, V domains shown) VH: EVQLVESGGGLVQPGGSLRLSCAASGFTFSTNAMSWVRQAPGKGLEWVARLRPKSDNYATYYADSVKGRFTISRDDSKNTLYLQMNSLRAEDTAVYYCVTGTGFWGQGTTLTVSS VL: DIVMTQSPDSLAVSLGERVTMNCKSSQSLLNSGNQKNYLTWYQQKPGQPPKLLIYWTSTRESGVPDRFSGSGSGTDFTLTISSVQAEDVAVYYCQNDYTSPYTFGQGTKLEIK	69.1	93.2
Clone 4768: Humanized IgG1 antibody, heavy chain variable region HvCh2 (SEQ ID NO: 2), light chain LiCh4 (SEQ ID NO: 8) (antibody, V domains shown) VH: EVQLVESGGGLVQPGGSLRLSCAASGFTFSTNAMSWVRQAPGKGLEWVARLRPKSDNYATYYADSVKGRFTISRDNSKNTLYLQMNSLRAEDTAVYYCVTGTGFWGQGTTLTVSS VL: DIVMTQSPDSLAVSLGERVTMNCKSSQSLLNSGNQKNYLTWYQQKPGQPPKLLFYWTSTRESGVPDRFSGSGSGTDFTLTISSVQAEDVAVYYCQNDYTSPYTFGQGTKLEIK	552	460
Clone 4772: Humanized IgG1 antibody, heavy chain variable region HvCh3 (SEQ ID NO: 3), light chain LiCh4 (SEQ ID NO: 8) (antibody, V domains shown) VH: EVQLVESGGGLVQPGGSLRLSCAASGFTFSTNAMSWVRQAPGKGLEWVARLRPKSDNYATYYADSVKGRFTISRDDSKNTLYLQMNSLRAEDTAVYYCVTGTGFWGQGTTLTVSS VL: DIVMTQSPDSLAVSLGERVTMNCKSSQSLLNSGNQKNYLTWYQQKPGQPPKLLFYWTSTRESGVPDRFSGSGSGTDFTLTISSVQAEDVAVYYCQNDYTSPYTFGQGTKLEIK	48.3	77.1

The remaining molecules from weak to strong by Kd [1], led by results:

Kd [1] [µM]	Kd [2] [µM]	Molecule
732	306	Clone 4765: Humanized IgG1 antibody, heavy chain variable region HvCh2 (SEQ ID NO: 2), light chain LiCh1 (SEQ ID NO: 5) (antibody, V domains shown) VH: EVQLVESGGGLVQPGGSLRLSCAASGFTFSTNAMSWVRQAPGKGLEWVARLRPKSDNYATYYADSVKGRFTISRDNSKNTLYLQMNSLRAEDTAVYYCVTGTGFWGQGTTLTVSS VL: DIVMTQSPDSLAVSLGERATINCKSSQSLLNSGNQKNYLTWYQQKPGQPPKLLIYWTSTRESGVPDRFSGSGSGTDFTLTISSLQAEDVAVYYCQNDYTSPYTFGQGTKLEIK
621	538	Clone 4766: Humanized IgG1 antibody, heavy chain variable region HvCh2 (SEQ ID NO: 2), light chain LiCh2 (SEQ ID NO: 6) (antibody, V domains shown) VH: EVQLVESGGGLVQPGGSLRLSCAASGFTFSTNAMSWVRQAPGKGLEWVARLRPKSDNYATYYADSVKGRFTISRDNSKNTLYLQMNSLRAEDTAVYYCVTGTGFWGQGTTLTVSS VL: DIVMTQSPDSLAVSLGERVTMNCKSSQSLLNSGNQKNYLTWYQQKPGQPPKLLIYWTSTRESGVPDRFSGSGSGTDFTLTISSVQAEDVAVYYCQNDYTSPYTFGQGTKLEIK
81.3	104	Clone 4769: Humanized IgG1 antibody, heavy chain variable region HvCh3 (SEQ ID NO: 3), light chain LiCh1 (SEQ ID NO: 5) (antibody, V domains shown) VH: EVQLVESGGGLVQPGGSLRLSCAASGFTFSTNAMSWVRQAPGKGLEWVARLRPKSDNYATYYADSVKGRFTISRDDSKNTLYLQMNSLRAEDTAVYYCVTGTGFWGQGTTLTVSS VL: DIVMTQSPDSLAVSLGERATINCKSSQSLLNSGNQKNYLTWYQQKPGQPPKLLIYWTSTRESGVPDRFSGSGSGTDFTLTISSLQAEDVAVYYCQNDYTSPYTFGQGTKLEIK
59.2	85.4	Clone 4771: Humanized IgG1 antibody, heavy chain variable region HvCh3 (SEQ ID NO: 3), light chain LiCh3 (SEQ ID NO: 7) (antibody, V domains shown) VH: EVQLVESGGGLVQPGGSLRLSCAASGFTFSTNAMSWVRQAPGKGLEWVARLRPKSDNYATYYADSVKGRFTISRDDSKNTLYLQMNSLRAEDTAVYYCVTGTGFWGQGTTLTVSS VL: DIVMTQSPDSLAVSLGERATINCKSSQSLLNSGNQKNYLTWYQQKPGQPPKLLFYWTSTRESGVPDRFSGSGSGTDFTLTISSLQAEDVAVYYCQNDYTSPYTFGQGTKLEIK
